Measured values published in patent US20140087995A1 (published 2014).
Numbered stars: 1 amine (or outer) side, 2 acyl side, 3 side chain; on linkers, the order of the positions; unused ones are H or OH. Bridge positions count the residues as written; N and C are the ends. Side chains are listed from the residue outwards. Ends that are not written are not given here. * marks the point of attachment. C20 diacid = O=C(O)CCCCCCCCCCCCCCCCCCC(=O)*; γGlu = O=C(O)[C@H](CCC(=O)[*:2])N[*:1]

T1: human calcitonin receptor (human, UniProt P30988 25-474)
T1 construct: whole, on cells; Membranes of BHK cells stably transfected with the human calcitonin receptor (Assay VII); also called hCTR; hCT
T1 sequence (looked up): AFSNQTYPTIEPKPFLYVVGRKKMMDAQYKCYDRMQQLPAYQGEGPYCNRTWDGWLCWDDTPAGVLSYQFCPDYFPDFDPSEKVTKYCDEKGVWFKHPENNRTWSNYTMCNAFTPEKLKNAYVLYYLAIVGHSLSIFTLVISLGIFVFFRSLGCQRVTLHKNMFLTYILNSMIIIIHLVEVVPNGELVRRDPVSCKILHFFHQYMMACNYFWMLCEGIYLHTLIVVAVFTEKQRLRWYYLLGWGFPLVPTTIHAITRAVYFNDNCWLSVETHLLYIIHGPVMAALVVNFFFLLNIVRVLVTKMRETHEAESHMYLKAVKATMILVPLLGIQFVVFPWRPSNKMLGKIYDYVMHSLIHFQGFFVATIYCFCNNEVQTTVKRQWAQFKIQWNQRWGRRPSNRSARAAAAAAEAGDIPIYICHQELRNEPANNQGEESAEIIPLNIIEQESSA

B1: N^ε1-[(4S)-4-carboxy-4-[[(4S)-4-carboxy-4-(19-carboxynonadecanoylamino)butanoyl]amino]butanoyl]-[Glu14,Arg17,Pro21,Pro27,Arg34,Glu35]-h-amylin (peptide)
peptide: K([γGlu-γGlu-C20 diacid])CNTATCATQRLAEFLRHSSPNFGAIPSSTNVGRETY-NH2
modifications: disulfide 2-7; N-terminus assumed
SMILES: CC[C@H](C)[C@H](NC(=O)[C@H](C)NC(=O)CNC(=O)[C@H](Cc1ccccc1)NC(=O)[C@H](CC(N)=O)NC(=O)[C@@H]1CCCN1C(=O)[C@H](CO)NC(=O)[C@H](CO)NC(=O)[C@H](Cc1c[nH]cn1)NC(=O)[C@H](CCCNC(=N)N)NC(=O)[C@H](CC(C)C)NC(=O)[C@H](Cc1ccccc1)NC(=O)[C@H](CCC(=O)O)NC(=O)[C@H](C)NC(=O)[C@H](CC(C)C)NC(=O)[C@H](CCCNC(=N)N)NC(=O)[C@H](CCC(N)=O)NC(=O)[C@@H](NC(=O)[C@H](C)NC(=O)[C@@H]1CSSC[C@H](NC(=O)[C@@H](N)CCCCNC(=O)CC[C@H](NC(=O)CC[C@H](NC(=O)CCCCCCCCCCCCCCCCCCC(=O)O)C(=O)O)C(=O)O)C(=O)N[C@@H](CC(N)=O)C(=O)N[C@@H]([C@@H](C)O)C(=O)N[C@@H](C)C(=O)N[C@@H]([C@@H](C)O)C(=O)N1)[C@@H](C)O)C(=O)N1CCC[C@H]1C(=O)N[C@@H](CO)C(=O)N[C@@H](CO)C(=O)N[C@H](C(=O)N[C@@H](CC(N)=O)C(=O)N[C@H](C(=O)NCC(=O)N[C@@H](CCCNC(=N)N)C(=O)N[C@@H](CCC(=O)O)C(=O)N[C@H](C(=O)N[C@@H](Cc1ccc(O)cc1)C(N)=O)[C@@H](C)O)C(C)C)[C@@H](C)O
B2: N^ε1-[(4S)-4-carboxy-4-[[(4S)-4-carboxy-4-(19-carboxynonadecanoylamino)butanoyl]amino]butanoyl]-[Glu14,Arg17,Pro21,Pro27,Pro34,Glu35,Pro37]-h-amylin (peptide)
peptide: K([γGlu-γGlu-C20 diacid])CNTATCATQRLAEFLRHSSPNFGAIPSSTNVGPETP-NH2
modifications: disulfide 2-7; N-terminus assumed
SMILES: CC[C@H](C)[C@H](NC(=O)[C@H](C)NC(=O)CNC(=O)[C@H](Cc1ccccc1)NC(=O)[C@H](CC(N)=O)NC(=O)[C@@H]1CCCN1C(=O)[C@H](CO)NC(=O)[C@H](CO)NC(=O)[C@H](Cc1c[nH]cn1)NC(=O)[C@H](CCCNC(=N)N)NC(=O)[C@H](CC(C)C)NC(=O)[C@H](Cc1ccccc1)NC(=O)[C@H](CCC(=O)O)NC(=O)[C@H](C)NC(=O)[C@H](CC(C)C)NC(=O)[C@H](CCCNC(=N)N)NC(=O)[C@H](CCC(N)=O)NC(=O)[C@@H](NC(=O)[C@H](C)NC(=O)[C@@H]1CSSC[C@H](NC(=O)[C@@H](N)CCCCNC(=O)CC[C@H](NC(=O)CC[C@H](NC(=O)CCCCCCCCCCCCCCCCCCC(=O)O)C(=O)O)C(=O)O)C(=O)N[C@@H](CC(N)=O)C(=O)N[C@@H]([C@@H](C)O)C(=O)N[C@@H](C)C(=O)N[C@@H]([C@@H](C)O)C(=O)N1)[C@@H](C)O)C(=O)N1CCC[C@H]1C(=O)N[C@@H](CO)C(=O)N[C@@H](CO)C(=O)N[C@H](C(=O)N[C@@H](CC(N)=O)C(=O)N[C@H](C(=O)NCC(=O)N1CCC[C@H]1C(=O)N[C@@H](CCC(=O)O)C(=O)N[C@H](C(=O)N1CCC[C@H]1C(N)=O)[C@@H](C)O)C(C)C)[C@@H](C)O
B3: N^ε1-[(4S)-4-carboxy-4-[[(4S)-4-carboxy-4-(19-carboxynonadecanoylamino)butanoyl]amino]butanoyl]-[Glu14,Arg17,Pro21,Pro27,His34,Glu35]-h-amylin (peptide)
peptide: K([γGlu-γGlu-C20 diacid])CNTATCATQRLAEFLRHSSPNFGAIPSSTNVGHETY-NH2
modifications: disulfide 2-7; N-terminus assumed
SMILES: CC[C@H](C)[C@H](NC(=O)[C@H](C)NC(=O)CNC(=O)[C@H](Cc1ccccc1)NC(=O)[C@H](CC(N)=O)NC(=O)[C@@H]1CCCN1C(=O)[C@H](CO)NC(=O)[C@H](CO)NC(=O)[C@H](Cc1c[nH]cn1)NC(=O)[C@H](CCCNC(=N)N)NC(=O)[C@H](CC(C)C)NC(=O)[C@H](Cc1ccccc1)NC(=O)[C@H](CCC(=O)O)NC(=O)[C@H](C)NC(=O)[C@H](CC(C)C)NC(=O)[C@H](CCCNC(=N)N)NC(=O)[C@H](CCC(N)=O)NC(=O)[C@@H](NC(=O)[C@H](C)NC(=O)[C@@H]1CSSC[C@H](NC(=O)[C@@H](N)CCCCNC(=O)CC[C@H](NC(=O)CC[C@H](NC(=O)CCCCCCCCCCCCCCCCCCC(=O)O)C(=O)O)C(=O)O)C(=O)N[C@@H](CC(N)=O)C(=O)N[C@@H]([C@@H](C)O)C(=O)N[C@@H](C)C(=O)N[C@@H]([C@@H](C)O)C(=O)N1)[C@@H](C)O)C(=O)N1CCC[C@H]1C(=O)N[C@@H](CO)C(=O)N[C@@H](CO)C(=O)N[C@H](C(=O)N[C@@H](CC(N)=O)C(=O)N[C@H](C(=O)NCC(=O)N[C@@H](Cc1c[nH]cn1)C(=O)N[C@@H](CCC(=O)O)C(=O)N[C@H](C(=O)N[C@@H](Cc1ccc(O)cc1)C(N)=O)[C@@H](C)O)C(C)C)[C@@H](C)O
B4: N^ε1-[(4S)-4-carboxy-4-[[(4S)-4-carboxy-4-(19-carboxynonadecanoylamino)butanoyl]amino]butanoyl]-[Glu14,Arg17,Pro21,Pro27,Pro34,Arg35]-h-amylin (peptide)
peptide: K([γGlu-γGlu-C20 diacid])CNTATCATQRLAEFLRHSSPNFGAIPSSTNVGPRTY-NH2
modifications: disulfide 2-7; N-terminus assumed
SMILES: CC[C@H](C)[C@H](NC(=O)[C@H](C)NC(=O)CNC(=O)[C@H](Cc1ccccc1)NC(=O)[C@H](CC(N)=O)NC(=O)[C@@H]1CCCN1C(=O)[C@H](CO)NC(=O)[C@H](CO)NC(=O)[C@H](Cc1c[nH]cn1)NC(=O)[C@H](CCCNC(=N)N)NC(=O)[C@H](CC(C)C)NC(=O)[C@H](Cc1ccccc1)NC(=O)[C@H](CCC(=O)O)NC(=O)[C@H](C)NC(=O)[C@H](CC(C)C)NC(=O)[C@H](CCCNC(=N)N)NC(=O)[C@H](CCC(N)=O)NC(=O)[C@@H](NC(=O)[C@H](C)NC(=O)[C@@H]1CSSC[C@H](NC(=O)[C@@H](N)CCCCNC(=O)CC[C@H](NC(=O)CC[C@H](NC(=O)CCCCCCCCCCCCCCCCCCC(=O)O)C(=O)O)C(=O)O)C(=O)N[C@@H](CC(N)=O)C(=O)N[C@@H]([C@@H](C)O)C(=O)N[C@@H](C)C(=O)N[C@@H]([C@@H](C)O)C(=O)N1)[C@@H](C)O)C(=O)N1CCC[C@H]1C(=O)N[C@@H](CO)C(=O)N[C@@H](CO)C(=O)N[C@H](C(=O)N[C@@H](CC(N)=O)C(=O)N[C@H](C(=O)NCC(=O)N1CCC[C@H]1C(=O)N[C@@H](CCCNC(=N)N)C(=O)N[C@H](C(=O)N[C@@H](Cc1ccc(O)cc1)C(N)=O)[C@@H](C)O)C(C)C)[C@@H](C)O
notes: also called compound 110
B5: N^ε1-[(4S)-4-carboxy-4-[[(4S)-4-carboxy-4-(19-carboxynonadecanoylamino)butanoyl]amino]butanoyl]-[Glu14,Arg17,Pro21,Pro27,Pro34,Phe37]-h-amylin (peptide)
peptide: K([γGlu-γGlu-C20 diacid])CNTATCATQRLAEFLRHSSPNFGAIPSSTNVGPNTF-NH2
modifications: disulfide 2-7; N-terminus assumed
SMILES: CC[C@H](C)[C@H](NC(=O)[C@H](C)NC(=O)CNC(=O)[C@H](Cc1ccccc1)NC(=O)[C@H](CC(N)=O)NC(=O)[C@@H]1CCCN1C(=O)[C@H](CO)NC(=O)[C@H](CO)NC(=O)[C@H](Cc1c[nH]cn1)NC(=O)[C@H](CCCNC(=N)N)NC(=O)[C@H](CC(C)C)NC(=O)[C@H](Cc1ccccc1)NC(=O)[C@H](CCC(=O)O)NC(=O)[C@H](C)NC(=O)[C@H](CC(C)C)NC(=O)[C@H](CCCNC(=N)N)NC(=O)[C@H](CCC(N)=O)NC(=O)[C@@H](NC(=O)[C@H](C)NC(=O)[C@@H]1CSSC[C@H](NC(=O)[C@@H](N)CCCCNC(=O)CC[C@H](NC(=O)CC[C@H](NC(=O)CCCCCCCCCCCCCCCCCCC(=O)O)C(=O)O)C(=O)O)C(=O)N[C@@H](CC(N)=O)C(=O)N[C@@H]([C@@H](C)O)C(=O)N[C@@H](C)C(=O)N[C@@H]([C@@H](C)O)C(=O)N1)[C@@H](C)O)C(=O)N1CCC[C@H]1C(=O)N[C@@H](CO)C(=O)N[C@@H](CO)C(=O)N[C@H](C(=O)N[C@@H](CC(N)=O)C(=O)N[C@H](C(=O)NCC(=O)N1CCC[C@H]1C(=O)N[C@@H](CC(N)=O)C(=O)N[C@H](C(=O)N[C@@H](Cc1ccccc1)C(N)=O)[C@@H](C)O)C(C)C)[C@@H](C)O

target: T1, human calcitonin receptor; experiment: ratio of IC50 at hCTR over IC50 at hAmylin-R (SPA competition assays)
Method in brief: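 Scintillation proximity competition binding on cell membranes at 35 ng/μL with SPA beads, in 50 mM Hepes pH 7.4, 1 mM CaCl2, 5 mM MgCl₂, 0.1% OA, 0.02% Tween20. Incubated 120 min at 25° C with shaking. IC₅₀ from one-site competition fit.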

Ratio hCT/hAmylin binding | Binder
14.7 | B1
22.6 | K([γGlu-γGlu-C20 diacid])CNTATCATQRLAEFLRHSSPNFGAILSSTPVGPETY-NH2 (disulfide 2-7 (inferred))
27.3 | K([γGlu-γGlu-C20 diacid])CNTATCATQRLAEFLRHSSPNFGAIPSSTNVGPHTY-NH2 (disulfide 2-7 (inferred))
0.4 | B2
29.1 | B3
53.6 | B4
18 | B5

target: T1, human calcitonin receptor; experiment: SPA competition against 125I-calcitonin, membranes of BHK cells with human calcitonin receptor (Assay VII)
Method in brief: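 BHK hCTR membranes 35 ng/μL + SPA beads 0.05 mg/well; buffer 50 mM Hepes pH 7.4, 1 mM CaCl2, 5 mM MgCl₂, 0.1% OA, 0.02% Tween20. 120 min, 25° C., shaking. Scintillation count; IC50 by one-site binding competition.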

IC50 [nM] | Binder
14.1 | B1
1.56 | K([γGlu-γGlu-C20 diacid])CNTATCATQRLAEFLRHSSPNFGAILSSTPVGPETY-NH2 (disulfide 2-7 (inferred))
10.3 | K([γGlu-γGlu-C20 diacid])CNTATCATQRLAEFLRHSSPNFGAIPSSTNVGPHTY-NH2 (disulfide 2-7 (inferred))
0.226 | B2
15.2 | B3
17.5 | B4
2.73 | B5
